Assay results published in patent US20230054718A1 (HIFIBIO HK, published 2023).
Numbering of substitutions follows the chain as printed. Values joined by “and” are separate entries in the source; they are usually repeats but may differ in a detail not shown here. Identical values can stand only once. One block for each binder: values may come before it.

Assays:
[1] = biological target: T1, recombinant mouse Galectin-9 (mouse, UniProt O08573-2 1-322, limits assumed); assay: binding to recombinant mouse Gal-9, OD read-out over antibody concentration (nM); table under the curves
T1 construct: also called mGal9M; mouse Gal9
T1 sequence (O08573 other isoform, or with tags, fused parts or gaps limits assumed): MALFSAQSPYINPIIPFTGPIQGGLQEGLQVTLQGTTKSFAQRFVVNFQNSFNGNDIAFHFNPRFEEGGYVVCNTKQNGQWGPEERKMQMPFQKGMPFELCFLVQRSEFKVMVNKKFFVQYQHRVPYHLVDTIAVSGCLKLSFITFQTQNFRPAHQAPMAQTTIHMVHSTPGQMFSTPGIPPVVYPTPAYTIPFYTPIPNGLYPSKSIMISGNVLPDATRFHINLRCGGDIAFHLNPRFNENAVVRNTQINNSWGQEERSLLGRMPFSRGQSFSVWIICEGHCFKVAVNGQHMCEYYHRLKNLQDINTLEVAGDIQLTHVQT

[2] = biological target: T2, recombinant human Galectin-9 (human, UniProt O00182-2 1-323, limits assumed); assay: binding to recombinant human Gal-9, OD read-out over antibody concentration (nM); table under the curves
T2 construct: also called hGal9M; human Gal9
T2 sequence (O00182 other isoform, or with tags, fused parts or gaps limits assumed): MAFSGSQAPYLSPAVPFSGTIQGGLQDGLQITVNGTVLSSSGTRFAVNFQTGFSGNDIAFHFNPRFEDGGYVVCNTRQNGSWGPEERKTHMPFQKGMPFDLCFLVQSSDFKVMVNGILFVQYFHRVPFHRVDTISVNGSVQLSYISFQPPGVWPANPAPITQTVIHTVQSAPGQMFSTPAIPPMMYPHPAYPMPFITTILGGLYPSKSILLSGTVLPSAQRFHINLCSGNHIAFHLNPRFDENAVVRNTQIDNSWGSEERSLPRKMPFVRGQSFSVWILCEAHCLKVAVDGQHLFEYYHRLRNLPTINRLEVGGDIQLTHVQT

[3] = biological target: T3, Gal9 (Galectin-9) as used in Examples 3 to 5 (Homo sapiens (Human), UniProt O00182 1-323); assay: Tim3 blocking Assay: binding (%) of Gal9 to TIM3 over antibody concentration; R2 printed 0,9756; no unit in the table, nM from the axis 'Antibody [nM]'
T3 sequence (O00182 other isoform, or with tags, fused parts or gaps limits assumed): as above

[4] = biological target: T1, recombinant mouse Galectin-9; assay: BLI (Octet)
Protocol: (§1) Antibody binding affinity was measured using the commercially available Octet system from ForteBio (Creative Biolabs). According to the Creative Biolabs description, the Octet platform is based on bio-layer interferometry (BLI) technology that utilizes a whole set of system including instruments, biosensors, reagents and assay kits to support the evaluation of biomolecular interactions in 96- or 384-well microplates. Octet system uses Dip-and-Read assay mode to avoid the need of microfluidics, and enables the real-time, label-free analysis of affinity as well as kinetics. There are three biosensor-based assay orientations that can be used to explore antibody interaction: tandem blocking, premix blocking and classical sandwich. Compared to Biacore, Octet's dip-and-read assay allows longer analyte-binding steps and […] the rebinding of analyte to the ligand-coated sensors. Meanwhile, faster association time consumes less sample, which saves your precious proteins.

[5] = biological target: T2, recombinant human Galectin-9; assay: BLI (Octet)
Protocol: as §1

[6] = biological target: T3, Gal9 (Galectin-9) as used in Examples 3 …; assay: Tim3 blocking Assay: binding (%) of Gal9 to TIM3 over antibody concentration; R2 printed 0,9960; no unit in the table, nM from the axis 'Antibody [nM]'
[7] = biological target: T3, Gal9 (Galectin-9) as used in Examples 3 …; assay: CD44 blocking Assay: binding (%) of Gal9 to CD44 over antibody concentration; ambiguous fit marked '~', R2 printed 0,9720; no unit in the table, nM from the axis 'Antibody [nM]'
[8] = biological target: T3, Gal9 (Galectin-9) as used in Examples 3 …; assay: CD44 blocking Assay: binding (%) of Gal9 to CD44 over antibody concentration; R2 printed 0,9790; no unit in the table, nM from the axis 'Antibody [nM]'
[9] = biological target: T3, Gal9 (Galectin-9) as used in Examples 3 …; assay: Tim3 blocking Assay: binding (%) of Gal9 to TIM3 over antibody concentration; R2 printed 0,9956; no unit in the table, nM from the axis 'Antibody [nM]'
[10] = biological target: T3, Gal9 (Galectin-9) as used in Examples 3 …; assay: CD44 blocking Assay: binding (%) of Gal9 to CD44 over antibody concentration; ambiguous fit marked '~', R2 printed 0,9183; no unit in the table, nM from the axis 'Antibody [nM]'
[11] = biological target: T3, Gal9 (Galectin-9) as used in Examples 3 …; assay: Tim3 blocking Assay: binding (%) of Gal9 to TIM3 over antibody concentration; ambiguous fit marked '~', R2 printed 0,9819; no unit in the table, nM from the axis 'Antibody [nM]'
[12] = biological target: T3, Gal9 (Galectin-9) as used in Examples 3 …; assay: Tim3 blocking Assay: binding (%) of Gal9 to TIM3 over antibody concentration; ambiguous fit marked '~', R2 printed 0,8826; no unit in the table, nM from the axis 'Antibody [nM]'
[13] = biological target: T3, Gal9 (Galectin-9) as used in Examples 3 …; assay: CD44 blocking Assay: binding (%) of Gal9 to CD44 over antibody concentration; very poor fit, R2 printed 0,07344; no unit in the table, nM from the axis 'Antibody [nM]'
[14] = biological target: T3, Gal9 (Galectin-9) as used in Examples 3 …; assay: Tim3 blocking Assay: binding (%) of Gal9 to TIM3 over antibody concentration; ambiguous fit marked '~', R2 printed 0,8078; no unit in the table, nM from the axis 'Antibody [nM]'
[15] = biological target: T3, Gal9 (Galectin-9) as used in Examples 3 …; assay: CD44 blocking Assay: binding (%) of Gal9 to CD44 over antibody concentration; ambiguous fit marked '~', R2 printed 0,7386; no unit in the table, nM from the axis 'Antibody [nM]'

EC50 [1]: 0.496 nM
EC50 [2]: 0.128 nM
IC50 [3]: 51.4 nM
B1: HFB9-2hz13-hG1AA (antibody, human IgG1, V domains shown)
VH: QVQLVQSGAEVKKPGASVKVSCKASGYTFTEYTIHWVRQAPGQGLEWMGWFYPGSGSTEYAQKFQGRVTMTADTSTSTVYMELSSLRSEDTAVYYCERHGGYDGFDYWGQGTTVTVSS
VL: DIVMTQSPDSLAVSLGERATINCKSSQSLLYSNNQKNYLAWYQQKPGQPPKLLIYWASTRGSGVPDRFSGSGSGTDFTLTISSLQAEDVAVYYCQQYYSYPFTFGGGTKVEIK
notes: Humanized variant of HFB9-2

EC50 [2]: 0.57 nM
B2: HFB9-2hz12-hG1AA (antibody, V domains shown)
VH: B1 VH with A16S, T58A, M70I, T74E, V79A
VL: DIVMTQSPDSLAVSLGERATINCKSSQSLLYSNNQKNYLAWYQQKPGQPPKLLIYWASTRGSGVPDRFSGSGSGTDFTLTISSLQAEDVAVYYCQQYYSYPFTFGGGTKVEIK
notes: humanized variant of HFB9-2

EC50 [1]: 0.533 nM
koff [4]: 0.000462 s⁻¹ and 0.000606 s⁻¹
kon [4]: 402000 M⁻¹ s⁻¹ and 166000 M⁻¹ s⁻¹
Kd [5]: 4.84 nM and 1.96 nM
koff [5]: 0.000352 s⁻¹ and 0.000179 s⁻¹
kon [5]: 72800 M⁻¹ s⁻¹ and 91400 M⁻¹ s⁻¹
IC50 [6]: 25.3 nM
IC50 [7]: ~39.6 nM
EC50 [2]: 0.117 nM
B3: HFB9-2hz11-hG1AA (antibody, IgG1, V domains shown)
VH: B1 VH with T76I, V79A, S85R, E89D, Y95F
VL: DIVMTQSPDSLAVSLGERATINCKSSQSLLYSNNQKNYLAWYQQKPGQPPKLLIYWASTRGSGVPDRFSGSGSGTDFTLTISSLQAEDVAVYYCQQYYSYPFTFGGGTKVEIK
notes: Humanized variant of HFB9-2; also called HFB9-2hz11-hG1AA MF20191024

IC50 [8]: 48.7 nM
IC50 [9]: 37.1 nM
EC50 [2]: 0.144 nM
B4: HFB9-2hz14-hG1AA (antibody, human IgG1, V domains shown)
VH: EVQLVQSGAEVKKPGESLKISCKGSGYTFTEYTIHWVRQMPGKGLEWMGWFYPGSGSTEYSPSFQGQVTISADKSISTAYLQWSSLKASDTAMYYCERHGGYDGFDYWGQGTTVTVSS
VL: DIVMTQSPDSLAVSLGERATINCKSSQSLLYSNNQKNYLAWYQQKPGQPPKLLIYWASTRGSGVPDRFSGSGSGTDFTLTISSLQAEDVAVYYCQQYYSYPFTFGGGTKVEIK
notes: Humanized variant of HFB9-2; also called 2h14

EC50 [1]: 0.828 nM
EC50 [2]: 0.15 nM
IC50 [10]: ~63.1 nM
IC50 [11]: ~59.8 nM
B5: HFB9-1hz2-hG1AA (antibody, human IgG1, V domains shown)
VH: QVQLVQSGAEVKKPGSSVKVSCKASGYTFTDYTIHWVRQAPGQGLEWMGWFYPGSHSIKYAQKFQGRVTITADKSTSTAYMELSSLRSEDTAVYFCTRHGGYDGFDYWGQGTLVTVSS
VL: DIVMTQSPDSLAVSLGERATINCKSSQSLFYSTNQKNYLAWYQQKPGQPPKLLIYWASTRESGVPDRFSGSGSGTDFTLTISSLQAEDVAVYYCQQYYYFPYTFGQGTKLEIK
notes: Humanized variant of HFB9-1

IC50 [12]: ~183 nM
EC50 [1]: 0.98 nM
IC50 [13]: 0.0616 nM
EC50 [2]: 0.142 nM
B6: HFB9-1hz3-hG1AA (antibody, human IgG1, V domains shown)
VH: B5 VH with F95Y
VL: B5 VL
notes: Humanized variant of HFB9-1

IC50 [14]: ~52.1 nM
EC50 [2]: 0.153 nM
IC50 [15]: ~255 nM
B7: HFB9-1hz1-hG1AA (antibody, human IgG1, V domains shown)
VH: B5 VH with S16A, I70M, K74T, T76I, S85R, E89D
VL: B5 VL
notes: Humanized variant of HFB9-1

EC50 [2]: 1.84 nM
B8: HFB9-1hz4-hG1AA (antibody, V domains shown)
VH: B5 VH with F95Y, T97A
VL: B5 VL
notes: humanized variant of HFB9-1
